This is an account of results in article PMC314469, “Protein Interaction Networks by Proteome Peptide Scanning” (PLoS Biology, 2004).

The chains are these.
T1: amphyphisin SH3 (AMPH_HUMAN), P49418
T1 chain: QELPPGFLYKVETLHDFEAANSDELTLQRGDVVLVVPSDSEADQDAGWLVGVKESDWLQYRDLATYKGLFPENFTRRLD

In the first experiment the target is T1, amphyphisin SH3 (AMPH_HUMAN), P49418. As to the kind of experiment: SPOT array.
For TIPPFERPFKDHQV [O94847 104-117], the normalised SPOT signal, Boehringer light units (BLU); mean over the file's lines of this peptide turned out to be 0.
TEVDIKRPSRGQTS [Q96T37 401-414] returned a normalised SPOT signal, Boehringer light units (BLU); mean over the file's lines of this peptide of 656.
Still for that read-out and setting: the same measure for TNAGIRRPEKPPYS [Q12946 14-27]: 70.3; for TEDTPRRPPEPKPI [Q9UKN7 2430-2443]: 16.8; for TKIPFKRPRGHNFS [Q9HAS2 64-77]: 53.7.
Consider TLKRPKRPPLREFF [Q9Y2E4 59-73], for which the normalised SPOT signal, Boehringer light units (BLU); mean over the file's lines of this peptide was determined as 3950.
On to SEGSLTRPKKAIPA [Q13329 90-103], for which the normalised SPOT signal, Boehringer light units (BLU); mean over the file's lines of this peptide stood at 76.6.
In turn, TELLPKRPQHLPGH [P54098 556-569] displayed a normalised SPOT signal, Boehringer light units (BLU); mean over the file's lines of this peptide of 34.4.
Same read-out and setting: the same measure for SEGTLERPQRSRGR [Q9NQX6 85-98]: 930.
On the same count and under the same terms, the same measure for TMSSIYRPLKPRTN [Q9H296 344-357]: 97.2; for TEGIPPKPPPRLVW [Q9UBY0 781-795]: 2770.
For TKTPPPRPPLPTQQ [Q9NSG0 388-402], the normalised SPOT signal, Boehringer light units (BLU); mean over the file's lines of this peptide amounted to 708.
In turn, TENAPSRPLRRRRK [Q9ULR8 121-134] gave a normalised SPOT signal, Boehringer light units (BLU); mean over the file's lines of this peptide of 18800.
Still for that read-out and setting: the same measure for TGGGPGRPPDWTPH [Q9BZS0 2280-2294]: 43.3.
In the case of TKDSPGKPPMAPPS [BAC03441 170-184], the normalised SPOT signal, Boehringer light units (BLU); mean over the file's lines of this peptide worked out at 90.4.
Same read-out and setting: the same measure for TLLSPPRPGRLPDL [O95206 1031-1044]: 443; for TEEELRRPEMKNFF [Q9Y373 238-251]: 34.2.
On the same count and under the same terms, the same measure for SEHNPKRPVTSEQG [O75598 106-119]: 33.3.
The same measure, in the same setting: the same measure for TLLEPRRPRSESVT [Q9UPN7 147-160]: 29.7; for TLLGPGRPYRAIDF [P40126 196-209]: 184; for TLLALQRPQRLHHH [Q9NYK9 18-31]: 3250.
Molecule TAKKIKRPKFTVPQ [Q9UDN0 30-43] displayed a normalised SPOT signal, Boehringer light units (BLU); mean over the file's lines of this peptide of 42.6.
Regarding TKALLKRPLREIQM [Q9UBI4 175-188], the normalised SPOT signal, Boehringer light units (BLU); mean over the file's lines of this peptide was 866.
Still for that read-out and setting: the same measure for TLLFPKRPFSWIRH [Q969I6 440-453]: 123.
The same measure, in the same setting: the same measure for TLKRPKRPPLKEFF [Q96NX2 23-37]: 2720.
Molecule TAPLPIRPPSGTKK [Q9UBS0 458-472] showed a normalised SPOT signal, Boehringer light units (BLU); mean over the file's lines of this peptide of 468.
As for TEGRLRRPQQQQER [Q96PE2 193-206], the normalised SPOT signal, Boehringer light units (BLU); mean over the file's lines of this peptide stood at 30.
For the molecule TLVWPHRPARPRPV [Q9BXL6 817-830], the normalised SPOT signal, Boehringer light units (BLU); mean over the file's lines of this peptide was 613.
The molecule TFGIPLRPNRGRGG [Q9UFR3 88-101] had a normalised SPOT signal, Boehringer light units (BLU); mean over the file's lines of this peptide of 8170.
Still for that read-out and setting: the same measure for TILLPKRPPKTTED [Q9BT43 129-143]: 282; for TDNKFRRPWTRVSA [Q96M73 46-59]: 40.3.
Still for that read-out and setting: the same measure for THSIIKRPDNQHVI [Q02817 4993-5006]: 38.6; for TKIMFNRPKKKNAI [O75521 116-129]: 80.4; for TIPKPPKPPDKPLM [O43539 57-71]: 59.5.
On the same count and under the same terms, the same measure for TAVPPKRPYGTQRT [Q9H6A9 359-372]: 37.8; for TLQAPRRPPTPGPD [Q9H6K5 343-356]: 35.3; for TELLPRRPPSSSSS [Q9BZL6 226-240]: 118.
Consider THLLIKRPPFFHYR [Q9HAM8 259-272], for which the normalised SPOT signal, Boehringer light units (BLU); mean over the file's lines of this peptide was determined as 33.8.

For another experiment, the target named is endophilin SH3 (SH3G2_HUMAN), Q99962. As to the kind of experiment: SPOT array.
As for TIPPFERPFKDHQV [O94847 104-117], the normalised SPOT signal, Boehringer light units (BLU); mean over the file's lines of this peptide came to 127.
On the same count and under the same terms, the same measure for TEVDIKRPSRGQTS [Q96T37 401-414]: 77.7.
The molecule TNAGIRRPEKPPYS [Q12946 14-27] registered a normalised SPOT signal, Boehringer light units (BLU); mean over the file's lines of this peptide of 113.
Still for that read-out and setting: the same measure for TEDTPRRPPEPKPI [Q9UKN7 2430-2443]: 16.8; for TKIPFKRPRGHNFS [Q9HAS2 64-77]: 22.1.
The same measure, in the same setting: the same measure for TLKRPKRPPLREFF [Q9Y2E4 59-73]: 24900.
The same measure, in the same setting: the same measure for SEGSLTRPKKAIPA [Q13329 90-103]: 128; for TELLPKRPQHLPGH [P54098 556-569]: 21.9.
On to SEGTLERPQRSRGR [Q9NQX6 85-98], for which the normalised SPOT signal, Boehringer light units (BLU); mean over the file's lines of this peptide stood at 125.
On the same count and under the same terms, the same measure for TMSSIYRPLKPRTN [Q9H296 344-357]: 120.
The molecule TEGIPPKPPPRLVW [Q9UBY0 781-795] showed a normalised SPOT signal, Boehringer light units (BLU); mean over the file's lines of this peptide of 1260.
Consider TKTPPPRPPLPTQQ [Q9NSG0 388-402], for which the normalised SPOT signal, Boehringer light units (BLU); mean over the file's lines of this peptide was found to be 13500.
For the molecule TENAPSRPLRRRRK [Q9ULR8 121-134], the normalised SPOT signal, Boehringer light units (BLU); mean over the file's lines of this peptide turned out to be 1650.
Same read-out and setting: the same measure for TGGGPGRPPDWTPH [Q9BZS0 2280-2294]: 668.
Still for that read-out and setting: the same measure for TKDSPGKPPMAPPS [BAC03441 170-184]: 80.7.
Consider TLLSPPRPGRLPDL [O95206 1031-1044], for which the normalised SPOT signal, Boehringer light units (BLU); mean over the file's lines of this peptide is 192.
Same read-out and setting: the same measure for TEEELRRPEMKNFF [Q9Y373 238-251]: 28.7.
Regarding SEHNPKRPVTSEQG [O75598 106-119], the normalised SPOT signal, Boehringer light units (BLU); mean over the file's lines of this peptide was found to be 19.4.
Same read-out and setting: the same measure for TLLEPRRPRSESVT [Q9UPN7 147-160]: 113; for TLLGPGRPYRAIDF [P40126 196-209]: 488.
Take TLLALQRPQRLHHH [Q9NYK9 18-31]: the normalised SPOT signal, Boehringer light units (BLU); mean over the file's lines of this peptide amounted to 877.
The same measure, in the same setting: the same measure for TAKKIKRPKFTVPQ [Q9UDN0 30-43]: 15.1; for TKALLKRPLREIQM [Q9UBI4 175-188]: 170.
In turn, TLLFPKRPFSWIRH [Q969I6 440-453] came in with a normalised SPOT signal, Boehringer light units (BLU); mean over the file's lines of this peptide of 1590.
Same read-out and setting: the same measure for TLKRPKRPPLKEFF [Q96NX2 23-37]: 15000; for TAPLPIRPPSGTKK [Q9UBS0 458-472]: 1100.
The molecule TEGRLRRPQQQQER [Q96PE2 193-206] had a normalised SPOT signal, Boehringer light units (BLU); mean over the file's lines of this peptide of 0.
Same read-out and setting: the same measure for TLVWPHRPARPRPV [Q9BXL6 817-830]: 2240.
Still for that read-out and setting: the same measure for TFGIPLRPNRGRGG [Q9UFR3 88-101]: 583; for TILLPKRPPKTTED [Q9BT43 129-143]: 916; for TDNKFRRPWTRVSA [Q96M73 46-59]: 20.5.
On the same count and under the same terms, the same measure for THSIIKRPDNQHVI [Q02817 4993-5006]: 56.3; for TKIMFNRPKKKNAI [O75521 116-129]: 112.
For TIPKPPKPPDKPLM [O43539 57-71], the normalised SPOT signal, Boehringer light units (BLU); mean over the file's lines of this peptide was 1750.
For the molecule TAVPPKRPYGTQRT [Q9H6A9 359-372], the normalised SPOT signal, Boehringer light units (BLU); mean over the file's lines of this peptide came out at 398.
For TLQAPRRPPTPGPD [Q9H6K5 343-356], the normalised SPOT signal, Boehringer light units (BLU); mean over the file's lines of this peptide turned out to be 1890.
Same read-out and setting: the same measure for TELLPRRPPSSSSS [Q9BZL6 226-240]: 339.
On the same count and under the same terms, the same measure for THLLIKRPPFFHYR [Q9HAM8 259-272]: 2020.
